These are literature values, as cited in article PMC6163503.

The target of data set [1] is JAK2 catalytic domain (Homo sapiens) (UniProt O60674). The data set is described as follows: SPR. (In general: SPR reads the build-up and loss of mass on a sensor chip optically.)
Data set [2] deals with Aminopeptidase N (Homo sapiens) (UniProt P15144).
Sequence of UniProt P15144 (P15144 2-967): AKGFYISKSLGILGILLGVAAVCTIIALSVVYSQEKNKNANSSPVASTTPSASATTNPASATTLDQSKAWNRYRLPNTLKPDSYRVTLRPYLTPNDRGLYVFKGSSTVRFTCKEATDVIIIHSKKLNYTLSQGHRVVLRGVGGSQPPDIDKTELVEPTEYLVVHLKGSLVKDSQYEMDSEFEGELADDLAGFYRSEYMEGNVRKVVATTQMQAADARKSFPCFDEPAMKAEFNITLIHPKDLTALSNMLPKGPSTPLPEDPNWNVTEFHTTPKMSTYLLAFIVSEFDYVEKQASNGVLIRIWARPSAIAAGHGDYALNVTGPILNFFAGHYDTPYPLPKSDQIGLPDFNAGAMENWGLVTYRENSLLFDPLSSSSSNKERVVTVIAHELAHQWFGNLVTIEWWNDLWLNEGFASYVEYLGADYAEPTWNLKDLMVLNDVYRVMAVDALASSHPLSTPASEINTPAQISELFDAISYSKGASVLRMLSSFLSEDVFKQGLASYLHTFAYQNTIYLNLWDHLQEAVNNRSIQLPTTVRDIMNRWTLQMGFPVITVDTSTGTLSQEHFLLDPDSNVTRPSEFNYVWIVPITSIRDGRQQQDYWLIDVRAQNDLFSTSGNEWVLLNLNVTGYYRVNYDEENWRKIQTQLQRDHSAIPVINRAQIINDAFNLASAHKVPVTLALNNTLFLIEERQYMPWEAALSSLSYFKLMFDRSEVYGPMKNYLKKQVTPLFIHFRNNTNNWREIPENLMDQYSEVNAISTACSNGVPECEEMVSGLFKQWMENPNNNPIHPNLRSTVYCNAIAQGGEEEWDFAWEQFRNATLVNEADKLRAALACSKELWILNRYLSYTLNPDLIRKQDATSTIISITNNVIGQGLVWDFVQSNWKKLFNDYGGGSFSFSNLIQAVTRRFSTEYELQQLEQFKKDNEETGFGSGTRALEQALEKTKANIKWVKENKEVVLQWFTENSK

Sequence of UniProt O60674 (O60674 849-1124): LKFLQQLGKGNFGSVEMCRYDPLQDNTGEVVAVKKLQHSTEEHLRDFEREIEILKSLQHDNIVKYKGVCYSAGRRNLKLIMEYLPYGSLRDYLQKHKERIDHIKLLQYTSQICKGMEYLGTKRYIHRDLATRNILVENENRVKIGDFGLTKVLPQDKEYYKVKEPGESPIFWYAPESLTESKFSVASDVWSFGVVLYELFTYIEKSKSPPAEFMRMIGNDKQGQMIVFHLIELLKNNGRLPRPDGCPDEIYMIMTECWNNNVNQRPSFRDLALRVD

What is called Kd is the free concentration of one partner at which half of the binding sites on the other are occupied at equilibrium, for simple one-to-one binding. As to “SOCS3 ESS peptide ESS (from UniProt O14543)”, in data set [1], the equilibrium dissociation constant (Kd) was more than 1000 µM.
Regarding “SOCS3 KIR peptide KIR (from UniProt O14543)”, the Kd in data set [1] was 2.03 µM.
Consider “SOCS3 KIRESS peptide KIRESS (from UniProt O14543)”, for which the Kd in data set [1] is 1.86 µM.
As usually defined, the Ki is the dissociation constant of the complex between target and ligand, obtained from inhibition or displacement. For the substance cyc-LHSPW, in data set [2], the Ki is 24.7 µM.
